Experiment [1] deals with T1, CD123-Fc (Sino Biological) (human, UniProt P26951 19-305).
T1 construct: Bought reagent; not shown: Fc of the bought fusion (detected with anti-human Fc, captured on AHC sensor)
T1 sequence: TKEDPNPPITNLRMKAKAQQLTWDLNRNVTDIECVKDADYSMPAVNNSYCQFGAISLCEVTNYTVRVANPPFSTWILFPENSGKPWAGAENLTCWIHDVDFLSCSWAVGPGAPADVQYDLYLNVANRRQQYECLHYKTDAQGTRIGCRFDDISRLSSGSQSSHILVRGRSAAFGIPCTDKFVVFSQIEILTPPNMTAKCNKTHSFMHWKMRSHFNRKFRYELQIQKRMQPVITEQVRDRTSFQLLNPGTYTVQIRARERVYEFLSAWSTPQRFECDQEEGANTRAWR
Nature of the experiment: ELISA of MBP fusions normalized for protein concentration, serial dilution. Here is the method:
(§1) Parent and mutated variant D domains were expressed as MBP fusions in E. coli (T7 Express, New England Biolabs) by either IPTG (isopropylthio-(3-galactoside) induction for 4 hours at 37° C. in Luria broth containing antibiotics and 0.2% glucose or through auto-induction for 16 hours at 30° C. using MagicMedia (Life Technologies). Post induction, cells were pelleted, washed and resuspended in “leak-out buffer” comprising 200 mM Tris pH 7.5 and 20 mM EDTA. After incubation at 30° C. for 16 hours, supernatant containing MBP fusion proteins were assayed by ELISA for both target binding and expression. Supernatants were added to 96-well Immulon 4HBX microtiter plates coated with anti-MBP polyclonal antibody (Abcam) at 0.0032 ug/ml. Followed by washing, bound MBP fusion proteins were detected either with CD123-Fc (Sino Biological)+anti-human Fc HRP (Abcam) to assess CD123 binding, or with anti-MBP-HRP (New England Biolabs) to assess MBP fusion protein expression.
In general terms: ELISA stands for enzyme-linked immunosorbent assay.

In experiment [2] the target is T1, CD123-Fc (Sino Biological). Nature of the experiment: ELISA of MBP fusions for binding to CD123 (FIG. 3). Here is the method: as §1
Experiment [3] has as its target T1, CD123-Fc (Sino Biological). As to the kind of experiment: ELISA: MBP fusion captured on anti-MBP antibody, detected with CD123-Fc + anti-human Fc HRP. Here is the method: as §1
For experiment [4], the target named is T2, CD123 expressed on the surface of cells (OCI-AML2, MOLM13, NALM6-CD123+) (human, UniProt P26951 19-378).
T2 chain: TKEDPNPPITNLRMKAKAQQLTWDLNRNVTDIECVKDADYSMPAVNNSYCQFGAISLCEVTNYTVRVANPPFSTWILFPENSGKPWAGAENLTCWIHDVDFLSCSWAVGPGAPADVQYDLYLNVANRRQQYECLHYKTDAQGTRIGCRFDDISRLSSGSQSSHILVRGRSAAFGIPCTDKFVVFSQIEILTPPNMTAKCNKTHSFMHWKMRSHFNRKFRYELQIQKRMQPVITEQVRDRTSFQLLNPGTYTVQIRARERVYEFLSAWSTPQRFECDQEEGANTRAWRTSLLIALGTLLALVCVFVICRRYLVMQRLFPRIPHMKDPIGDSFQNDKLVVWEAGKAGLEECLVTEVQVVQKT
Nature of the experiment: flow cytometry. For orientation: In flow cytometry, cells or beads pass a laser one at a time.

Experiment [5] concerns the target T1, CD123-Fc (Sino Biological). As to the kind of experiment: BLI (Octet), CD123-Fc captured on AHC sensor, Adapter 500-0.69 nM in solution, global 1:1 fit, 25 C. As for the experimental part: To assess the kinetics of CD123 binding, Adapter proteins comprising the D domains were analyzed using Bio-Layer Interferometry (BLI). Adapter proteins comprising a CD123-binding D domain and a P26(Q26-V229) AFP polypeptide (SEQ ID NO: 39) were generated through transient transfection of HEK-293 cells, followed by Ni-Sepharose Excel (Cytiva) and SEC chromatography. BLI experiments were performed using an Octet RED386 (Sartorius). All experiments were performed at 25° C. in kinetic buffer (PBS, 0.1% BSA, 0.02% tween 20) under constant 1000 rpm agitation. CD123-Fc (20 nM) was captured on an AHC sensor (Sartorius) for 250 seconds to a loading density of ˜0.8 nm. […] The surface was regenerated by 3 rounds of 10 seconds of 10 mM Glycine pH 1.5, followed by kinetic buffer. The data was analyzed using a global fit with a 1:1 interaction model from Sartorius Octet Analysis studio.
For orientation: In BLI a coated tip is dipped into the sample, and binding shifts an interference pattern.

Experiment [6] has as its target T1, CD123-Fc (Sino Biological). As to the kind of experiment: method not stated in the sentence (BLI of Adapters follows).

Changes are numbered by the printed parent chain. In names and notes the source's numbering stands.

The record followed here is patent publication US20240124605A1 (published 2024).

B1: 1J1K D domain as MBP fusion (designed binder, not shown: large carriers; small tags and cut ends)
chain: MGSWDEFSRRLYAIEWRLYALGGSEAELAAFEKEIAAFESELQAYKGKGNPEVEKLREIAAVIRSNLQAYRHN
notes: also called 8W9C (G8S)
As for B1, the binding result in experiment [1] is given as “binds”.

B2: 4H2H D domain as MBP fusion (designed binder, not shown: large carriers; small tags and cut ends)
chain: B1 chain with S8G, K48I, K55N
notes: also called 8W9C (K48I, K55N)
With B2, the binding result in experiment [1] was “binds”.

B3: 6Z5E D domain as MBP fusion (designed binder, not shown: large carriers; small tags and cut ends)
chain: B1 chain with S8G, N50S
notes: also called 8W9C (N50S)
Take B3: the binding result in experiment [1] is recorded as “binds”.

B4: 5S5W D domain as MBP fusion (designed binder, not shown: large carriers)
chain: MGSWSEFNMRLDAIYERLTALGGSEAELAAFEKEIAAFESELQAYKGKGNPEVEWLRHSAARIRLELQAYRHN
On to B4, for which, in experiment [2], the binding result was “binds”.

B5: 5B7L D domain as MBP fusion (designed binder, not shown: large carriers)
chain: B4 chain with S5I, T19V, H58K, S59V, R62N
Consider B5, for which the binding result in experiment [3] is “binds”.

B6: Adapter protein comprising the 6T1D D domain and a P26(Q26-V229) AFP polypeptide (designed binder)
chain: MGSWDEFGRRLYAIEWQLYALGGTEAELAAFEKEIAAFESELQAYKGKGNPEVEKLREIAAVIRENLQAYRHNQESQALAKRSCGLFQKLGEYYLQNAFLVAYTKKAPQLTSSELMAITRKMAATAATCCQLSEDKLLACGEGAADIIIGHLCIRHEMTPVNPGVGQCCTSSYANRRPCFSSLVVDETYVPPAFSDDKFIFHKDLCQAQGVALQTMKQEFLINLVKQKPQITEEQLEAVIADFSGLLEKCCQGQEQEVCFAEEGQKLISKTRAALGV
notes: also called parental D domain (6T1D); not shown: His tag (purified on Ni-Sepharose)
The term EC50 denotes the midpoint of the concentration-response curve. A lower EC50 goes with higher potency in that assay. In general, Kd refers to the concentration at which binding is half-saturated. Low values mean tighter binding, high ones weaker binding. One may read the koff as the rate constant with which the complex falls apart. Read a low koff as a long-lived complex. A word on the kon: it is a measure of how fast the partners come together. Read a low kon as slow association. As to B6, the half-maximal effective concentration (EC50) in experiment [4] is 2.61 µg/mL. In experiment [5], this molecule returned a Kd of 7.6 nM, a koff of 0.00105 s⁻¹ and a kon of 139000 M⁻¹ s⁻¹.

B7: Adapter protein comprising the 0C8S D domain and a P26(Q26-V229) AFP polypeptide (designed binder)
chain: B6 chain with G8S, K48E, N50S, I59L
notes: also called 0085; 6T1D(G8S, K48E, N50S, I59L); not shown: His tag (purified on Ni-Sepharose)
As to B7, a half-maximal effect in experiment [4] (EC50) was put at 2.44 µg/mL. In experiment [5], the Kd was found to be 1 nM, the koff amounted to 0.000151 s⁻¹ and the kon turned out to be 146000 M⁻¹ s⁻¹.

B8: Adapter protein comprising the 4R8U D domain and a P26(Q26-V229) AFP polypeptide (designed binder)
chain: B6 chain with K48E, N50S
notes: also called 6T1D(K48E, N50S); not shown: His tag (purified on Ni-Sepharose)
As to B8, the EC50 in experiment [4] worked out at 1.9 µg/mL. In addition, in experiment [5], binding was put at a Kd of 1.2 nM, the koff was 0.000304 s⁻¹ and the kon was found to be 254000 M⁻¹ s⁻¹.

B9: Adapter protein comprising the 6K4C D domain and a P26(Q26-V229) AFP polypeptide (designed binder)
chain: B6 chain with D5A
notes: also called 6T1D(D5A); not shown: His tag (purified on Ni-Sepharose)
In experiment [5], B9 yielded a Kd of 18 nM, a koff of 0.00353 s⁻¹ and a kon of 197000 M⁻¹ s⁻¹.

B10: Adapter protein comprising the 3F4N D domain and a P26(Q26-V229) AFP polypeptide (designed binder)
chain: B6 chain with N50S
notes: also called 6T1D(N50S); not shown: His tag (purified on Ni-Sepharose)
In experiment [4], B10 displayed an EC50 of 1.83 µg/mL. In experiment [5], this molecule displayed a Kd of 1.3 nM, a koff of 0.000275 s⁻¹ and a kon of 213000 M⁻¹ s⁻¹.

B11: Adapter protein comprising the 8W9C D domain and a P26(Q26-V229) AFP polypeptide (designed binder)
chain: B6 chain with Q17R, T24S, E65S
notes: also called wild type; not shown: His tag (purified on Ni-Sepharose)
In experiment [5], B11 showed a Kd of 5.2 nM, a koff of 0.000924 s⁻¹ and a kon of 177000 M⁻¹ s⁻¹.

B12: Adapter protein comprising the 8O3S D domain and a P26(Q26-V229) AFP polypeptide (designed binder)
chain: B6 chain with W16T
notes: also called 6T1D(W16T); not shown: His tag (purified on Ni-Sepharose)
B12 had an EC50 in experiment [4] of 4.62 µg/mL. In experiment [5], this molecule returned a Kd of 28 nM, a koff of 0.00665 s⁻¹ and a kon of 235000 M⁻¹ s⁻¹.

B13: Adapter protein comprising the 1F9I D domain and a P26(Q26-V229) AFP polypeptide (designed binder)
chain: B6 chain with L21Q, I59L
notes: also called 6T1D(L21Q, I59L); not shown: His tag (purified on Ni-Sepharose)
As to B13, in experiment [5], binding was characterised by a dissociation constant (Kd) of 7.6 nM, the dissociation rate constant (koff) turned out to be 0.000646 s⁻¹ and the kon turned out to be 85200 M⁻¹ s⁻¹.

B14: Adapter protein comprising the 5B1Q D domain and a P26(Q26-V229) AFP polypeptide (designed binder)
chain: B6 chain with G8S, L21Q, K48E, N50S, I59L
notes: also called 6T1D(G8S, L21Q, K48E, N50S, I59L); not shown: His tag (purified on Ni-Sepharose)
Regarding B14, the EC50 in experiment [4] came out at 3.22 µg/mL. In experiment [5], this molecule returned a Kd of 0.73 nM, a koff of 0.000136 s⁻¹ and a kon of 187000 M⁻¹ s⁻¹. Besides, the “fold enhancement of affinity over that of 6T1D” value in experiment [6] was roughly 10 fold.

B15: Adapter protein comprising the 4I0K D domain and a P26(Q26-V229) AFP polypeptide (designed binder)
chain: B6 chain with W16S
notes: also called 6T1D(W16S); not shown: His tag (purified on Ni-Sepharose)
With B15, in experiment [4], a half-maximal response (EC50) required 4.26 µg/mL. In experiment [5], binding was put at a Kd of 14 nM, the koff worked out at 0.00252 s⁻¹ and the kon worked out at 177000 M⁻¹ s⁻¹.
